Measurements taken from paper PMC8477213.
Like-named read-outs stand apart in the source and are kept apart here.

B1: TIRR 25mer (dsDNA)
DNA 1: TCAGATCGATGGCACTGTTGCAAAG
DNA 2: CTTTGCAACAGTGCCATCGATCTGA
B2: TIRR 50mer (dsDNA)
DNA 1: TCAGATCGATGGCACTGTTGCAAAGTTAGCGATGAGGCAGCCTTTTGTCT
DNA 2: AGACAAAAGGCTGCCTCATCGCTAACTTTGCAACAGTGCCATCGATCTGA
B3: TIRR 10G>T (dsDNA)
DNA 1: TCAGATCGATGGCACTGTTTCAAAGTTAGCGATGAGGCAGCCTTTTGTCT
DNA 2: AGACAAAAGGCTGCCTCATCGCTAACTTTGAAACAGTGCCATCGATCTGA
B4: TIRR 1G>T 2G>T (dsDNA)
DNA 1: TCAGATCGATTTCACTGTTGCAAAGTTAGCGATGAGGCAGCCTTTTGTCT
DNA 2: AGACAAAAGGCTGCCTCATCGCTAACTTTGCAACAGTGAAATCGATCTGA
B5: TIRR 7G>T (dsDNA)
DNA 1: TCAGATCGATGGCACTTTTGCAAAGTTAGCGATGAGGCAGCCTTTTGTCT
DNA 2: AGACAAAAGGCTGCCTCATCGCTAACTTTGCAAAAGTGCCATCGATCTGA
B6: TIRL 50mer (dsDNA)
DNA 1: TCAGATCGATGGCACTGTTGCAAATAGTCGGTGGTGATAAACTTATCATC
DNA 2: GATGATAAGTTTATCACCACCGACTATTTGCAACAGTGCCATCGATCTGA
B7: Scrambled TIRR (dsDNA)
DNA 1: TTCGTGACTACATCGATCTAGGCTAGCTAGTCAGCTGATCGACTAGCGAT
DNA 2: ATCGCTAGTCGATCAGCTGACTAGCTAGCCTAGATCGATGTAGTCACGAA

Assays:
Tnp26 WT [1] = molecular target: T1, Tnp26 WT (IS26 (bacterial insertion sequence; …, UniProt A0A2K9V0L7 1-234, G117R); experiment: EMSA
T1 sequence: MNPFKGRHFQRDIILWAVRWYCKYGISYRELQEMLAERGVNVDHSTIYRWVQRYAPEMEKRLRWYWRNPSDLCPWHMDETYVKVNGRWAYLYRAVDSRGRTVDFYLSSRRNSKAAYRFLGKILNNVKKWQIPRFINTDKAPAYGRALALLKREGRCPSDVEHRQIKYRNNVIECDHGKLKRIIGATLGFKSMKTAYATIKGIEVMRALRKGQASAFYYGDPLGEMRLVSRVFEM

Tnp26 R49A = molecular target: T2, Tnp26 R49A (IS26 (bacterial insertion sequence; …, UniProt A0A2K9V0L7 1-234, R49A;G117R); experiment: EMSA
T2 sequence: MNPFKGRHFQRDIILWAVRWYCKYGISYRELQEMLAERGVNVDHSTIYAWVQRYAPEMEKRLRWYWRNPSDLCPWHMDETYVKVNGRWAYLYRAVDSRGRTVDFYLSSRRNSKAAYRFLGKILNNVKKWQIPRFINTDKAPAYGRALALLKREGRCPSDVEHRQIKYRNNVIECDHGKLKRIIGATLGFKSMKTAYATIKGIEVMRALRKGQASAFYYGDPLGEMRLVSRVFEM

Tnp26 F9A = molecular target: T3, Tnp26 F9A (IS26 (bacterial insertion sequence; …, UniProt A0A2K9V0L7 1-234, F9A;G117R); experiment: EMSA
T3 sequence: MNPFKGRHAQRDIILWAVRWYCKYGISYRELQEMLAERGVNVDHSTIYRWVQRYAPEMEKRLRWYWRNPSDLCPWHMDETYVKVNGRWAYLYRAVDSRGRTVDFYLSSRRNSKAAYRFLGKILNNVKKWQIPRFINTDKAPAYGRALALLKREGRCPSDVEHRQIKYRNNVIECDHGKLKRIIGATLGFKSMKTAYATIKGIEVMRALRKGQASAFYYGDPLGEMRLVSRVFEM

Tnp26 F4A = molecular target: T4, Tnp26 F4A (IS26 (bacterial insertion sequence; …, UniProt A0A2K9V0L7 1-234, F4A;G117R); experiment: EMSA
T4 sequence: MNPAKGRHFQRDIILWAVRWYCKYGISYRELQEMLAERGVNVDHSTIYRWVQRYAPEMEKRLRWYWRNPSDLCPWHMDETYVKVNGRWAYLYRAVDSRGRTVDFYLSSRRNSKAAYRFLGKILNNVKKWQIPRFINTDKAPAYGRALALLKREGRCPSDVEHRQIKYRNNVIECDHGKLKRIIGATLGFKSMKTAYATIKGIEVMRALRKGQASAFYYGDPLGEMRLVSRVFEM

Tnp26 W50A = molecular target: T5, Tnp26 W50A (IS26 (bacterial insertion sequence; …, UniProt A0A2K9V0L7 1-234, W50A;G117R); experiment: EMSA
T5 sequence: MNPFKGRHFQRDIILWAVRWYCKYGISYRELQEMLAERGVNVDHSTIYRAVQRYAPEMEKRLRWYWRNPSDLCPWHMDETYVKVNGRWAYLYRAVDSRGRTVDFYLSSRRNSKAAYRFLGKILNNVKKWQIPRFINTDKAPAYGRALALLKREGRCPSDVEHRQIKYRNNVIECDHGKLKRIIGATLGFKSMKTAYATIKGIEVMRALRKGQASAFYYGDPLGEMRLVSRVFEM

Tnp26 WT [2] = molecular target: T1, Tnp26 WT; experiment: MST
Tnp26 WT [3] = molecular target: T1, Tnp26 WT; experiment: EMSA; remark: listed apart in the source
Tnp26 1-56 [4] = molecular target: T6, Tnp26 1-56 (IS26 (bacterial insertion sequence; …, UniProt A0A2K9V0L7 1-56); experiment: EMSA
T6 sequence: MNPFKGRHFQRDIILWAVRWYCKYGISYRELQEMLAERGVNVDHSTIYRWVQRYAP

Tnp26 Y54A = molecular target: T7, Tnp26 Y54A (IS26 (bacterial insertion sequence; …, UniProt A0A2K9V0L7 1-234, Y54A;G117R); experiment: MST
T7 sequence: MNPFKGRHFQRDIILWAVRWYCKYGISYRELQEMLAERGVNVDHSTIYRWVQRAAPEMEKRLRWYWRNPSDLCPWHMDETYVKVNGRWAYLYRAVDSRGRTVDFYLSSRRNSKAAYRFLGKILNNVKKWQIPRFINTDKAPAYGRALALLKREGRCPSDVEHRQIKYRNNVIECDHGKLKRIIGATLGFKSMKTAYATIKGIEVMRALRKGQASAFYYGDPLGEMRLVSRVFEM

Tnp26 1-56 [5] = molecular target: T6, Tnp26 1-56; experiment: EMSA; remark: listed apart in the source

Binder	binding result (Tnp26 R49A)	binding result (Tnp26 F9A)	binding result (Tnp26 F4A)	binding result (Tnp26 W50A)	Kd (Tnp26 WT [2]) [nM]	further results
B1	–	–	–	–	–	binding result (Tnp26 WT [1]): no binding
B2	no binding	no binding	no binding	no binding	394	–
B3	–	–	–	–	872	–
B4	–	–	–	–	240	–
B5	–	–	–	–	–	binding result (Tnp26 WT [3]): no binding; binding result (Tnp26 1-56 [4]): no binding
B6	no binding	no binding	no binding	no binding	–	Kd (Tnp26 Y54A): 802 nM
B7	no binding	no binding	no binding	no binding	–	binding result (Tnp26 WT [3]): no binding; binding result (Tnp26 1-56 [5]): no binding
